# Laboratory results published in patent US10421973B2, “Chemically inducible cucumber mosaic virus protein expression system” (THE REGENTS OF THE UNIVERSITY OF CALIFORNIA, priority 2006, dated 2019).
# Entries after “also recorded” stand apart in the source; their conditions may differ. Read-outs that look alike come from different tables or passages of the source.
# Key:
# [1] = system: proteases in the cell cultured medium; assay: Effect of protease inhibitors and additives on human AAT degradation in cell-free CMViva conditioned medium; format: biochemical, Nicotiana benthamiana; details: for effect of protease inhibitor on human AAT degradation: 10 mM in 7 day old cell-free CMViva conditioned medium
# Experimental: (§1) For the investigation of human AAT stability in plant cell cultures, human AAT was added to the cell-free conditioned medium to a final concentration of 2 mg/L and distributed into 6-well-plates. The cell-free conditioned medium was prepared by centrifuging and filtering (through a 0.22 μm filter) the plant cells from 7 day old CMViva cell cultures (pH 5.1). Various protease inhibitors including 2-mercaptoethylamine-HCl (aminopeptidase inhibitor), AEBSF (serine and cysteine proteases inhibitor), benzamidine-HCl (serine protease inhibitor), and EDTA (a metal ion chelator and metalloproteinase inhibitor) were added to the conditioned medium to a final concentration of 10 mM to assess their ability to retard the degradation of human AAT. In another treatment, the conditioned medium was also heated (in boiling water for 30 minutes) or the medium pH was adjusted (from original pH 5.1 to 6.4˜6.6) prior to the addition of human AAT to investigate the human AAT stability. The 6-well-plates containing human AAT in various conditioned medium (4 mL/well) were incubated on an orbital shaker at 140 rpm and 25[…] under ambient light. Samples were taken daily and stored at −80° for further ELISA, western blotting and band shift analysis.
# [2] = system: transgenic plant cell cultures; assay: Effect of stabilizing agents and protease inhibitors on rAAT production in transgenic plant cell cultures; format: cell-based, Nicotiana benthamiana
# Experimental: The effect of stabilizing agents (bacitracin, PVP, BSA, Pluronic F-68, and mannitol) and protease inhibitors (2-mercaptoethylamine-HCl, AEBSF, benzamidine-HCl and EDTA) on the rAAT production in transgenic plant cell cultures was also evaluated.
# [3] = Experimental: as §1
# [4] = transgenic plant cell cultures, data not shown
# [5] = 5 day incubation, fresh sterile KCMS medium, pH 5.8
molecule,measurement,setting,value
NCCc1ccc(S(=O)(=O)F)cc1 [AEBSF],effect of protease inhibitor on human AAT degradation,[1],highest ability to stabilize functional human AAT levels; also recorded: slightly inhibit human AAT degradation
same,effect on total and functional rAAT production,[2]; [4],no significant improvement
Cl.NCCS [2-mercaptoethylamine-HCl],effect of protease inhibitor on human AAT degradation,[1],slightly inhibit human AAT degradation
same,effect on total and functional rAAT production,[2]; [4],no significant improvement
OC[C@@H](O)[C@@H](O)[C@H](O)[C@H](O)CO [mannitol],effect of medium additive on stabilizing functional human AAT,"[1]; cell-free conditioned medium, data not shown",did not show significant effect
same,effect on total and functional rAAT production,[2]; [4],no significant improvement
O=C(O)CN(CCN(CC(=O)O)CC(=O)O)CC(=O)O [EDTA],effect on total and functional rAAT production,[2],no significant improvement
human AAT: commercially available human AAT (Calbiochem) used as standard and spiked into media,decline of total human AAT,"[3]; 5 day incubation, 7 day old cell-free CMViva culture medium, pH about 5.0",60%
same,decline of functional human AAT,[3]; [5],~50%
same,decline of total human AAT,[3]; [5],about 25%
same,decline of total human AAT,"[3]; 5 day period, CMViva culture medium adjusted to pH 6.4",about 25%
same,functionality of human AAT,[3]; 11 day-old cell-free CMViva medium adjusted to pH 4-5,accelerates the loss of functionality
same,functionality of human AAT,[3]; 11 day-old cell-free CMViva medium adjusted to pH 7-8,maintains the functionality
same,functional human AAT as % of the initial concentration,"[3]; after 5 days, heated CMViva culture medium",70%
same,functional human AAT level,"[3]; within 2 days, 7 day old cell-free CMViva culture medium, pH about 5.0",negligible
